Source: patent US20180230218A1
Blank lines part the entries; values can stand above or below the substance they belong to.

What was measured:
[1] = biological target: human cMET (MET, c-Met, HGF receptor) on cells (human) (UniProt P08581); experiment: flow cytometry, inhibition of HGF (50 ng/mL) binding to BxPC3 cells
[2] = biological target: human cMET (MET, c-Met, HGF receptor) on cells (human) (UniProt P08581); experiment: flow cytometry, inhibition of HGF (50 ng/mL) binding to MKN45 cells
[3] = biological target: human cMET (MET, c-Met, HGF receptor) on cells (human) (UniProt P08581); experiment: cell-based or functional assay

Sequence of human cMET (MET, c-Met, HGF receptor) on cells (human) (P08581 25-1390): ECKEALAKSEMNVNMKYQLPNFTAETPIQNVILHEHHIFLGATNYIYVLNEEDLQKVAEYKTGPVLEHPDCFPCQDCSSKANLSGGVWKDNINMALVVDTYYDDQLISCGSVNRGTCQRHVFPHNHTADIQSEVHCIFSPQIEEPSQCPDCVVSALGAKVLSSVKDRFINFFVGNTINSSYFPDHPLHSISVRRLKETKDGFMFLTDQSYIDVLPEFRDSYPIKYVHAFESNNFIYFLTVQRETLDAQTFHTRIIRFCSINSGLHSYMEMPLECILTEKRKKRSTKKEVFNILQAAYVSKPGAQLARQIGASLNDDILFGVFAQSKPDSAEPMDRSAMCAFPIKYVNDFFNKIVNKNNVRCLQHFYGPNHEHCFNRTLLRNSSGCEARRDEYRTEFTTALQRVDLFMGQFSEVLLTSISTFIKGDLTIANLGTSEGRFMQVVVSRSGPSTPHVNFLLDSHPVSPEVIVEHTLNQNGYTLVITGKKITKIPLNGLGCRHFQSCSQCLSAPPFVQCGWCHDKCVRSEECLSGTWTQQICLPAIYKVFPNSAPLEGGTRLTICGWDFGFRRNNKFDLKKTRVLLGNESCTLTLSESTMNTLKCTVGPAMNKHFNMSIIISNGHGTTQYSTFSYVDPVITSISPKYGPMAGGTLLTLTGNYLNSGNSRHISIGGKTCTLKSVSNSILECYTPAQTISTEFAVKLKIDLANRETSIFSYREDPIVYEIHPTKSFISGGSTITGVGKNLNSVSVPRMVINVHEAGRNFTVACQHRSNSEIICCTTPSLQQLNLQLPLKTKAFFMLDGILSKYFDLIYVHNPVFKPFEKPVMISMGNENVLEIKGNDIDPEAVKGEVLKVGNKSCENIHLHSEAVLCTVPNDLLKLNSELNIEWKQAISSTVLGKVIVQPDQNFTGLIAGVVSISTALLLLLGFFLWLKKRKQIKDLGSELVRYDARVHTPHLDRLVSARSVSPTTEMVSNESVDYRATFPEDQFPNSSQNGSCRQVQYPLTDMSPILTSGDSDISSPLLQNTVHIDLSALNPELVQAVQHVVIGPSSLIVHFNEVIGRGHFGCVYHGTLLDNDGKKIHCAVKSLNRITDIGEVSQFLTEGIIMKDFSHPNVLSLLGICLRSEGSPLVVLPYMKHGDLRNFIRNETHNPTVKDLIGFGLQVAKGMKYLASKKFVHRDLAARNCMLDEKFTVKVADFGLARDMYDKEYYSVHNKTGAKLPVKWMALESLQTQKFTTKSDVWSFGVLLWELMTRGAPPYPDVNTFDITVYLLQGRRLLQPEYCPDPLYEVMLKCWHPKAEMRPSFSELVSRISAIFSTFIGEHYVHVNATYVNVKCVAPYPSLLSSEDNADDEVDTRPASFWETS

% inhibition of HGF binding [1]: 50% | % inhibition of HGF binding [2]: 67%
Substance: 224G11 (antibody)

Substance: huIgG-SMCC-DM1 (antibody)
in vitro cytotoxicity in MET-expressing MKN45 cells, EC50 [3]: > 30 nM

percent induction of NCI-H441 cell growth (WST-8), normalised to 100 ng/mL HGF [3]: 92%
Substance: 5D5 (antibody)
